In patent publication US20210221894A1 (DRAGONFLY THERAPEUTICS, published 2021):

T1: recombinant mouse NKG2D-Fc fusion protein (mouse; human, UniProt O54709 90-232)
T1 construct: extracellular domain; also called Mouse NKG2D-Fc-biotin; not shown: human IgG1 Fc domain
T1 sequence (looked up): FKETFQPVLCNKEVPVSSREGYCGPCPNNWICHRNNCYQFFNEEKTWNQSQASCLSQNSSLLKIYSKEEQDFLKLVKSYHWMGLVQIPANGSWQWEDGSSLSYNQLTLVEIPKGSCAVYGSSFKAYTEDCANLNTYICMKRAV

T2: recombinant human NKG2D-Fc fusion protein (human, UniProt P26718 73-216)
T2 construct: extracellular domain; also called NKG2D-Fc-biotin; not shown: human IgG1 Fc domain
T2 sequence (looked up): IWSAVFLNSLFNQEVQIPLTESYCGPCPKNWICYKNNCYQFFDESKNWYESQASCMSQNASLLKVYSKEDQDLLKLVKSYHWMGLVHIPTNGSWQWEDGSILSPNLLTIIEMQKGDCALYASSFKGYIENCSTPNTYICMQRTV

T3: recombinant cynomolgus NKG2D-Fc fusion protein (cynomolgus; human, UniProt P61252 73-216)
T3 construct: extracellular domain; not shown: human IgG1 Fc domain
T3 sequence (looked up): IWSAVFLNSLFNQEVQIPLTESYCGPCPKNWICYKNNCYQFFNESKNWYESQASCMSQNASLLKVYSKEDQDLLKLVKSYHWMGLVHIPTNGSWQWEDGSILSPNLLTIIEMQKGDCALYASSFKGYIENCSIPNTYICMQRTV

T4: recombinant human DLL1 (human, UniProt O00548 18-540, limits assumed)
T4 sequence (looked up): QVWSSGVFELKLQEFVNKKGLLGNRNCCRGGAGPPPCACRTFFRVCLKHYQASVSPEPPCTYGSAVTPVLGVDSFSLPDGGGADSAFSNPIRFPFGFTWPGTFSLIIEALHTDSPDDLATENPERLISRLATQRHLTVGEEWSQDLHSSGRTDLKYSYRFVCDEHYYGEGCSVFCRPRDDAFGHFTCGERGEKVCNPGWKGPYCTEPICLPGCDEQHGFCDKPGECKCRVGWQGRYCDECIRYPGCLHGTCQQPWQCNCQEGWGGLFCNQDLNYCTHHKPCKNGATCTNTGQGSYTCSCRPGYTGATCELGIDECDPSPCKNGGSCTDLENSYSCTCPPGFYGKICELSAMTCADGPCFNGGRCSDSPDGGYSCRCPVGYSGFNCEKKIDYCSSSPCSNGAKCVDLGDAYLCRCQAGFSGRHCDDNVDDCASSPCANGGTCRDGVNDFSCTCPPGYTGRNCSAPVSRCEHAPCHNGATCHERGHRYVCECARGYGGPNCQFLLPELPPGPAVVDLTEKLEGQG

T5: recombinant human DLL3 (ELISA coat) (human, UniProt Q9NYJ7 27-492)
T5 sequence: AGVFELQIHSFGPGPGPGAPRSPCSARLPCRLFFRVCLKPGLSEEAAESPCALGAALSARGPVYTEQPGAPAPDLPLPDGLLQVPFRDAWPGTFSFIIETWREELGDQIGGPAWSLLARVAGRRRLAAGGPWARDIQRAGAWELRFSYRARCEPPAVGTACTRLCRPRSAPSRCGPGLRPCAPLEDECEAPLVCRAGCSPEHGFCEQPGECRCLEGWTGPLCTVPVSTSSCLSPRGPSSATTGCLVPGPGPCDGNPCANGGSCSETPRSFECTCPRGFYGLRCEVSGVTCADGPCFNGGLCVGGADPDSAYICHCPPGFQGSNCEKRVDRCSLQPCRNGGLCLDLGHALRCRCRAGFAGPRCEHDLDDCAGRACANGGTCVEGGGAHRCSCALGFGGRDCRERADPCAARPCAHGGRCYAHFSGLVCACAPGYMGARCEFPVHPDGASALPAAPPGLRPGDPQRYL

T6: extracellular domain (ECD) of human DLL3 (AdipoGen Life Sciences) (human, UniProt Q9NYJ7 27-492)
T6 construct: Bought and further purified by size exclusion chromatography; also called hDLL3 ECD; DLL3 ECD
T6 sequence: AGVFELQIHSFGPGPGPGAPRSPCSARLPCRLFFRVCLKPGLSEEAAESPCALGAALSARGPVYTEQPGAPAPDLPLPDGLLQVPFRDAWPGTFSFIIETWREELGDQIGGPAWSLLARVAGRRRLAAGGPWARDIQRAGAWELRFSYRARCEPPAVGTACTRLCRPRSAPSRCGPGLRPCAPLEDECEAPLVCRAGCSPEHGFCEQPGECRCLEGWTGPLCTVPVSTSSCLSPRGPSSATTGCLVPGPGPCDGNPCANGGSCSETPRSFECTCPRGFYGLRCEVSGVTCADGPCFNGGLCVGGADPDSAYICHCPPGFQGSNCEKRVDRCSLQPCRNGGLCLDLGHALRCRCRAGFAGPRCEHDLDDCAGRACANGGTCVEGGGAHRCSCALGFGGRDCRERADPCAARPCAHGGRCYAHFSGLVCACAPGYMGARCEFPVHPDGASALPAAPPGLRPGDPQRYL


Key:
[1] = biological target: T1, recombinant mouse NKG2D-Fc fusion …; assay: ELISA, plate-bound recombinant mouse NKG2D-Fc, anti-human kappa-HRP/TMB
Description: (§1) The nucleic acid sequences of human, mouse or cynomolgus NKG2D ectodomains were fused with nucleic acid sequences encoding human IgG1 Fc domains and introduced into mammalian cells to be expressed. After purification, NKG2D-Fc fusion proteins were adsorbed to wells of microplates. After blocking the wells with bovine serum albumin to prevent non-specific binding, NKG2D-binding domains were titrated and added to the wells pre-adsorbed with NKG2D-Fc fusion proteins. Primary antibody binding was detected using a secondary antibody which was conjugated to horseradish peroxidase and specifically recognizes a human kappa light chain to avoid Fc cross-reactivity. 3,3′,5,5′-Tetramethylbenzidine (TMB), a substrate for horseradish peroxidase, was added to the wells to visualize the binding signal, whose absorbance was measured at 450 nm and corrected at […]. An NKG2D-binding domain clone, an isotype control or a positive control (comprising heavy chain and light chain variable domains selected from SEQ ID NOs:101-104, or anti-mouse NKG2D clones MI-6 and CX-5, eBioscience, San Diego, Calif.) was added to each well.

[2] = biological target: T2, recombinant human NKG2D-Fc fusion …; assay: competition ELISA: plate-bound human NKG2D-Fc, saturating ULBP-6-His-biotin as blocked ligand, streptavidin-HRP
Method: Recombinant human NKG2D-Fc proteins were adsorbed to wells of a microplate, and the wells were blocked with bovine serum albumin to reduce non-specific binding. A saturating concentration of ULBP-6-His-biotin was added to the wells, followed by addition of the NKG2D-binding domain clones. After a 2-hour incubation, wells were washed and ULBP-6-His-biotin that remained bound to the NKG2D-Fc coated wells was detected by streptavidin-conjugated to horseradish peroxidase and TMB substrate. Absorbance was measured at 450 nm and corrected at […]. After subtracting background, specific binding of NKG2D-binding domains to the NKG2D-Fc proteins was calculated from the percentage of ULBP-6-His-biotin that was blocked from binding to the NKG2D-Fc proteins in wells.

[3] = biological target: T1, recombinant mouse NKG2D-Fc fusion …; assay: competition ELISA: plate-bound mouse Rae-1 delta-Fc, mouse NKG2D-Fc-biotin in solution; blocked ligand Rae-1 delta
Method: Recombinant mouse Rae-1 delta-Fc (R&D Systems, Minneapolis, Minn.) was adsorbed to wells of a microplate, and the wells were blocked with bovine serum albumin to reduce non-specific binding. Mouse NKG2D-Fc-biotin was added to the wells followed by NKG2D-binding domains. After incubation and washing, NKG2D-Fc-biotin that remained bound to Rae-1delta-Fc coated wells was detected using streptavidin-HRP and TMB substrate. Absorbance was measured at 450 nm and corrected at […]. After subtracting background, specific binding of NKG2D-binding domains to the NKG2D-Fc proteins was calculated from the percentage of NKG2D-Fc-biotin that was blocked from binding to the Rae-1delta-Fc coated wells.

[4] = biological target: T3, recombinant cynomolgus NKG2D-Fc fusion …; assay: ELISA, plate-bound recombinant cynomolgus NKG2D-Fc, anti-human kappa-HRP/TMB
Description: as §1

[5] = biological target: T2, recombinant human NKG2D-Fc fusion …; assay: ELISA, plate-bound recombinant human NKG2D-Fc, anti-human kappa-HRP/TMB
Description: as §1

[6] = biological target: T4, recombinant human DLL1; assay: ELISA, plate-bound recombinant human DLL1 (1 µg/mL), anti-mouse IgG-HRP/TMB, % of positive control max
Method: (§2) To investigate the binding of anti-DLL3 antibodies to human DLL3, wells of high binding flat-bottom plates were coated with recombinant human DLL3 diluted to 0.5 μg/ml. To assess cross-reactivity of the antibodies to DLL1/DLL4, which are closely related family members to DLL3, plates were coated with recombinant human DLL1 diluted to 1 μg/ml, or human DLL4 diluted to 0.5 μg/ml. […] Binding was detected using anti-mouse IgG-HRP and 3,3′,5,5′-Tetramethylbenzidine (TMB) substrate. Signals were normalized to the corresponding positive control antibody.

[7] = biological target: T5, recombinant human DLL3 (ELISA coat); assay: ELISA, plate coated with recombinant human DLL3 0.5 µg/ml, anti-mouse IgG-HRP
Method: as §2
Table 38 lists the calculated EC₅₀ based on the binding data from FIG. 24.

[8] = biological target: recombinant human DLL4 (human, UniProt Q9NR61 27-524, limits assumed); assay: ELISA, plate-bound recombinant human DLL4 (0.5 µg/mL), anti-mouse IgG-HRP/TMB, % of positive control max
Method: as §2

[9] = biological target: T6, extracellular domain (ECD) of human …; assay: SPR (Biacore 8K), 37 C, antibody captured on anti-mouse Fc, DLL3 ECD injected, 1:1 fit; off rate beyond instrument sensitivity
Description: (§3) The binding kinetics of different anti-DLL3 antibodies to recombinant proteins of different domains of human DLL3 were studied by surface plasmon resonance (SPR) using a Biacore™ 8K instrument. These anti-DLL3 antibodies were produced from mouse hybridomas, and each included a heavy chain variable region and light chain variable region described herein. Briefly, antibodies recognizing human IgG Fc and antibodies recognizing mouse IgG Fc were immobilized on different channels of a Biacore™ 8K chip to allow simultaneous analysis of human and murine anti-DLL3 antibodies. Murine anti-DLL3 antibodies were captured on the anti-mouse Fc channel of the Biacore chip. The human anti-DLL3 antibody from Stemcentrx (San Francisco, Calif.) was used as a control and was captured onto anti-human Fc channel of the Biacore™ chip. Different concentrations of DLL3 ECD, DLL3 N-terminal domain, EGF2-6, EGF3-6, EGF4-6, or EGF5-6 domains of DLL3 were injected. Experiments were performed at 37° C. Biacore™ 8K evaluation software was used for all data analysis. To obtain kinetic rate constants double-referenced data were fit to a 1:1 interaction model using Biacore™ 8K Evaluation software (GE Healthcare, Marlborough, Mass.). The equilibrium binding constant KD was determined by the ratio of binding rate constants kd/kₐ.
(§4) Table 36 lists the calculated binding kinetics (KD). […]

[10] = biological target: T6, extracellular domain (ECD) of human …; assay: SPR (Biacore 8K), 37 C, antibody captured on anti-mouse Fc, DLL3 ECD injected, 1:1 fit
Description: as §3
Table 36 lists the calculated binding kinetics (KD). […] Stemcentrx anti-DLL3 antibody was used as a control.

[11] = biological target: T6, extracellular domain (ECD) of human …; assay: SPR (Biacore 8K), 37 C, antibody captured on anti-mouse Fc, DLL3 ECD injected, 1:1 fit; approximate
Description: as §3, §4

Sequence of recombinant human DLL4 (Q9NR61 27-524 limits assumed): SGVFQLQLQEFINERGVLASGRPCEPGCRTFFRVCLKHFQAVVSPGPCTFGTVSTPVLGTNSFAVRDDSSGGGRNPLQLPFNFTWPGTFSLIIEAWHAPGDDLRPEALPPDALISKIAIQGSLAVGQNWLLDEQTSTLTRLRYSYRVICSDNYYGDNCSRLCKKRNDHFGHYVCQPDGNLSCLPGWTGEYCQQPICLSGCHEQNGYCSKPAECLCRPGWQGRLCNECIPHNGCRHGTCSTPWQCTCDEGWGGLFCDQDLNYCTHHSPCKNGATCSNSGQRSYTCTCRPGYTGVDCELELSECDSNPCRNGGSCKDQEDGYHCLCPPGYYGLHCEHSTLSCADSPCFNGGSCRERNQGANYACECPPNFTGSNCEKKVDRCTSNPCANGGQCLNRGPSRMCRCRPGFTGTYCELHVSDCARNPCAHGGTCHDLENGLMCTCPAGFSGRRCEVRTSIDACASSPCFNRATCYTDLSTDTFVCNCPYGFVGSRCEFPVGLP

EC50 (read off the curve) [1] | IC50 (read off the curve) [2] | IC50 (read off the curve) [3] | EC50 (read off the curve) [4] | EC50 (read off the curve) [5] | binding result [6] | EC50 [7] | binding result [8] | koff [9] | kon [10] | Kd [11] | Binder
~0.2 nM | ~2 nM | ~20 nM | ~0.3 nM | ~0.3 nM |  |  |  |  |  |  | ADI-27743 (antibody, V domains shown) VH: QVQLQQWGAGLLKPSETLSLTCAVYGGSFSGYYWSWIRQPPGKGLEWIGEIDHSGSTNYNPSLKSRVTISVDTSKNQFSLKLSSVTAADTAVYYCARARGPWSFDPWGQGTLVTVSS VL: not shown
 |  |  |  |  | no binding | 0.06 nM | no binding |  |  |  | anti-DLL3 antibody clone 2H6 (antibody, V domains shown, Murine antibody from a mouse hybridoma) VH: QIQLVQSGPELKKPGETVKISCKASGYTFTTYGVNWVKQAPGKGLKWMGWINTYSGVPTYADDFKGRFAFSLETIATTAYLQINNLKNEDTATYFCARFGNYGFDYWGQGTTLTVSS VL: DIVMTQSPSSLSVSAGEKVTMSCKSSQSLVNSGNQKNYLAWYQQKPGQPPKLLISGASTRESGVPDRFTGSGSGTDFTLTISSVQAEDLAVYYCQNDHNYPYTFGGGTKLEIK
 |  |  |  |  | no binding | 0.3 nM | no binding | ~1.15e-06 s⁻¹ | 72100 M⁻¹ s⁻¹ | < 0.011 nM | anti-DLL3 antibody clone 2F7 (antibody, V domains shown, Murine antibody produced from a mouse hybridoma) VH: QVQLQQSGAELMKPGASVKLSCKATGYTFTGYWIDWIKQRPGHGLEWVGEILPGSDNINYNEKFRGKATFTADTSSNTAYIQLSSLTTEDSAIYFCARCGTGPWFTYWGQGTLVTVSA VL: NIMMTQSPSSLAVSAGEKVTMSCKSSQSVLYSSNQKNYLAWYQQKPGQSPRLLIYWASTRASGVPDRFTGSGSGTDFTLTITNIQPEDLAVYYCHQFLSSTWTFGGGTKLEIK
